Results as given in patent publication US20070178101A1.

Experiments:
[1] = biological target: Ovr110-HA on stably transfected mouse LMTK cells (human) (UniProt Q7Z7D3); assay: FACS on Ovr110-HA transfected mouse LMTK cells, secondary antibody alone
[2] = biological target: Ovr110-HA on stably transfected mouse LMTK cells (human) (UniProt Q7Z7D3); assay: FACS on Ovr110-HA transfected mouse LMTK cells, secondary antibody alone, gate I

## Donkey Anti-Mouse Ig-PE (antibody)
[1]
  Mean of Fluorescence: 0.48
[2]
  Percentage of cells: 0.6
